Target: Human recombinant full length DDX3X (human) (UniProt O00571)

helicase activity (unwinding of dsRNA Substrate *R18: R38) against DDX3X concentration, cooperativity index nH: 1.5 | helicase activity (unwinding of dsRNA Substrate *R18: R38) against DDX3X concentration, half-maximal enzyme concentration K1/2: 0.26 µM | nuclease (RNaseH2-like) activity against DDX3X concentration, cooperativity index nH (no cooperativity observed): 0.7
Substance: Human recombinant full length DDX3X (from UniProt O00571 1-662) (enzyme)

From article PMC7672437
